Reference: patent US20260139048A1 (NANJING LEGEND BIOTECH, published 2026)
Substitutions are numbered along the chain they refer to.

T1: TIGIT on TIGIT-over expressing NFAT-Luc/Jurkat effector cells (GenScript reporter cell line) (UniProt Q495A1 22-244, limits assumed)
T1 sequence (looked up): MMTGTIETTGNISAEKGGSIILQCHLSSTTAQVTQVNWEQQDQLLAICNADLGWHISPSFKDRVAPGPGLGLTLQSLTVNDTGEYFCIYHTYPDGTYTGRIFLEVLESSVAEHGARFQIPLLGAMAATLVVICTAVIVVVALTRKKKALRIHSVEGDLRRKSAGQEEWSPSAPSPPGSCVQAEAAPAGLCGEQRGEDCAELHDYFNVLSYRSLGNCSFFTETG

T2: human TIGIT expressed on CHO-K1 cells (human, UniProt Q495A1 22-244)
T2 construct: whole, on cells; also called human TIGIT-CHO-K1 cells; human TIGIT over-expressing cell line
T2 sequence (looked up): T1 sequence (looked up)

T3: His-tagged human TIGIT (human, UniProt Q495A1 22-141)
T3 construct: SPR analyte; also called human TIGIT protein; not shown: His tag
T3 sequence: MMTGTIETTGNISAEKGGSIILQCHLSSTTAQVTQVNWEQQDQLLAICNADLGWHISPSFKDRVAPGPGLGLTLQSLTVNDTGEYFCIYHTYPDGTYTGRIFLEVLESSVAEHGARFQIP

B1: TIGIT-3 chimeric antibody (antibody, human IgG1, kappa, V domains shown)
VH: EVQLVESGGGLVQPGGSLKLSCAASGFTFSSYGMSWVRQTPDKRLELVATIKSDGGSTNLPDSVKGRFTISRDNAKNTLHLQMSSLKSEDTAMYYCVRGYFDYWGQGTSVTVSS
VL: DIVMTQSHKFMSTSVGDRVSITCKASQDVKTAVAWYQQKPGQSPKLLIYWSSTRHTGVPDRFTGSRSLTDHTLTISSVQAEDLALYYCQQYYSTPYTFGGGTKLELKR
notes: also called 3VH + 3VL
B2: 4.1D3 (anti-TIGIT positive control antibody) (antibody, V domains shown)
VH: QVQLQQSGPGLVKPSQTLSLTCAISGDSVSSNSAAWNWIRQSPSRGLEWLGKTYYRFKWYSDYAVSVKGRITINPDTSKNQFSLQLNSVTPEDTAVFYCTRESTTYDLLAGPFDYWGQGTLVTVSS
VL: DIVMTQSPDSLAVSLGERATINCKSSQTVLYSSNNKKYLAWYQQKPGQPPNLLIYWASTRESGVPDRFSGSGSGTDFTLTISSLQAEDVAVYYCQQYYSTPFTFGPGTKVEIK
B3: TIGIT-19 chimeric antibody (antibody, human IgG1, kappa, V domains shown)
VH: QVQLQQPGPELVKPGTSVMLSCKASGYAFSRYSMYWVKQSHGKSLEWIAFIDPYNGGSTYNQRFRGKATLTVDKSSSTAYMHLNTLTSDDSAVYYCARGGDYGWYLGVWGAGTTVTVSS
VL: DIQMTQSPASLSASVGETVTITCRPSENIYTYLSWYQQKRGKSPQLLVYNAKTLPENVPSRFSGSGSGTQFSLKIDSLQPEDFGNYYCQHHYGNPLTFGAGTKLELKR
notes: also called 19VH + 19VL
B4: TIGIT-6 chimeric antibody (antibody, human IgG1, kappa, V domains shown)
VH: QVQLKQSGPELVKPGASVKISCKTSGYTITENTMHWVKQSHGKSLEWIGGINPNNGGTSYNQQFKGKATLTVDKSSSTAYMELRSLTSEDSAVYYCTRSSYYRYDLDYWGQGTTVTVSS
VL: DIQMTQSHKFMSTSVGDRVSITCKASQDVKTALAWYQQKPGQSPKLLIYSASYRYTGVPDRFTGSGSGTDFTFTISSVQAEDLAVYYCHQHYTTPWTFGGGTKLEIKR
notes: also called 6VH + 6VL
B5: huTIGIT-3-1 (antibody, human IgG1, kappa, V domains shown)
VH: EVQLVESGGGLVQPGGSLRLSCAASGFTFSSYGMSWVRQAPGKGLELVATIKSSGGSTNLADSVKGRFTISRDNSKNTLYLQMNSLRAEDTAVYYCVRGYFDYWGQGTTVTVSS
VL: DIQMTQSPSSLSASVGDRVTITCRASQDIKTALAWYQQKPGKSPKLLIYWASTRQSGVPSRFSGSGSGTDFTLTISSLQPEDVATYYCQQYYSTPYTFGGGTKVEIKR
notes: Humanized IgG; also called 3VH3.M4 + 3VL4.M6
B6: reshaped TIGIT-3 antibody 3VH3 + 3VL (antibody, V domains shown)
VH: B5 VH with S54D, A61P
VL: DIVMTQSHKFMSTSVGDRVSITCKASQDVKTAVAWYQQKPGQSPKLLIYWSSTRHTGVPDRFTGSRSLTDHTLTISSVQAEDLALYYCQQYYSTPYTFGGGTKLELK
notes: Full-length IgG, tested as HEK293 supernatant
B7: reshaped TIGIT-3 antibody 3VH3.M4 + 3VL (antibody, V domains shown)
VH: B5 VH
VL: B6 VL
notes: as for B6
B8: reshaped TIGIT-3 antibody 3VH3.M4 + 3VL5.M6 (antibody, V domains shown)
VH: B5 VH
VL: DIQMTQSPSSLSASVGDRVTITCRASQDIKTALAWYQQKPGQSPKLLIYWASTRQSGVPSRFSGSGSGTDFTLTISSLQPEDVATYYCQQYYSTPYTFGGGTKVEIK
notes: as for B6

biological target: T1, TIGIT on TIGIT-over expressing …; experiment: cell-based or functional assay

Row | Bottom (RLU) | EC50 [nM] | Top (RLU) | Binder
1 | 11200 | 2.77 | 42800 | B1
2 | 12600 | 9.28 | 44200 | B2
3 | 11100 | 3.28 | 41600 | B3
4 | 10900 | 9.42 | 49800 | B4

biological target: T1, TIGIT on TIGIT-over expressing …; experiment: cell-based or functional assay; remark: another data set of the same source

Row | Bottom (RLU) | EC50 [nM] | Top (RLU) | Binder
5 | 55800 | 2.1 | 148000 | B1
6 | 55300 | 9.69 | 142000 | B2
7 | 47600 | 2.75 | 130000 | B3
8 | 54400 | 4.92 | 152000 | B5
9 | 51400 | 4.9 | 139000 | B4

biological target: T2, human TIGIT expressed on CHO-K1 cells; experiment: flow cytometry on CHO-K1 cells expressing human TIGIT

Row | EC50 [nM] | Binder
10 | 0.53 | B1
11 | 0.95 | B2
12 | 0.41 | B3
13 | 0.42 | B4

biological target: T2, human TIGIT expressed on CHO-K1 cells; experiment: as above; remark: another data set of the same source

Row | EC50 [nM] | Binder
14 | 0.346 | B1
15 | 1.05 | B2
16 | 0.311 | B3
17 | 0.511 | B5
18 | 0.581 | B4

biological target: T3, His-tagged human TIGIT; experiment: SPR experiment 1, IgG from HEK293 supernatant captured

Row | Kd [nM] | koff [s⁻¹] | kon [M⁻¹ s⁻¹] | Binder
19 | 0.24 | 0.00012 | 510000 | B1
20 | 0.25 | 0.00015 | 580000 | B6

biological target: T3, His-tagged human TIGIT; experiment: SPR experiment 2, IgG from HEK293 supernatant captured

Row | Kd [nM] | koff [s⁻¹] | kon [M⁻¹ s⁻¹] | Binder
21 | 0.48 | 0.00025 | 520000 | B6
22 | 0.36 | 0.00016 | 450000 | B7

biological target: T3, His-tagged human TIGIT; experiment: SPR experiment 4, IgG from HEK293 supernatant captured

Row | Kd [nM] | koff [s⁻¹] | kon [M⁻¹ s⁻¹] | Binder
23 | 0.28 | 0.00017 | 610000 | B1
24 | 0.56 | 0.00046 | 820000 | B5
25 | 0.5 | 0.00043 | 870000 | B8

biological target: T3, His-tagged human TIGIT; experiment: SPR experiment 1, IgG from HEK293 supernatant captured; remark: another data set of the same source

Row | Kd [nM] | koff [s⁻¹] | kon [M⁻¹ s⁻¹] | Binder
26 | 0.094 | 5.3e-05 | 560000 | B4

biological target: T3, His-tagged human TIGIT; experiment: SPR experiment 2, IgG from HEK293 supernatant captured; remark: another data set of the same source

Row | Kd [nM] | koff [s⁻¹] | kon [M⁻¹ s⁻¹] | Binder
27 | 0.29 | 0.00012 | 420000 | B4

biological target: T3, His-tagged human TIGIT; experiment: SPR experiment 1, IgG from HEK293 supernatant captured; remark: another data set of the same source

Row | Kd [nM] | koff [s⁻¹] | kon [M⁻¹ s⁻¹] | Binder
28 | 0.071 | 9.7e-05 | 1.4e+06 | B3

biological target: T3, His-tagged human TIGIT; experiment: SPR experiment 2, IgG from HEK293 supernatant captured; remark: another data set of the same source

Row | Kd [nM] | koff [s⁻¹] | kon [M⁻¹ s⁻¹] | Binder
29 | 0.12 | 0.00015 | 1.2e+06 | B3

biological target: T4, cynomolgus TIGIT expressed on CHO-K1 cells (cynomolgus, UniProt A0A7N9I9V4 89-312); experiment: flow cytometry on CHO-K1 cells expressing cynomolgus TIGIT
T4 construct: whole, on cells; also called cynomolgus TIGIT over-expressing cell line
T4 sequence (A0A7N9I9V4 entry or part of it): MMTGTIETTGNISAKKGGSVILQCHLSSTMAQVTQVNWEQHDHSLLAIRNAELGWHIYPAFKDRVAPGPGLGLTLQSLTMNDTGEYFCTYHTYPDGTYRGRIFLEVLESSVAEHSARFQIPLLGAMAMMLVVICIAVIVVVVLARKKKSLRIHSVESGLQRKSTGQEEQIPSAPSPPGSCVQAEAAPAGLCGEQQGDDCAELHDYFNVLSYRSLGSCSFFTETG

Row | EC50 [nM] | Binder
30 | 2 | B1
31 | 2.77 | B2
32 | 1.05 | B3
33 | 2.64 | B4

biological target: T4, cynomolgus TIGIT expressed on CHO-K1 …; experiment: as above; remark: another data set of the same source

Row | EC50 [nM] | Binder
34 | 1.42 | B1
35 | 2.35 | B2
36 | 0.524 | B3
37 | 1.72 | B5
38 | 2.31 | B4

biological target: T3, His-tagged human TIGIT; experiment: SPR (Biacore T200), antibody captured, His-tagged TIGIT analyte

Row | Kd [nM] | koff [s⁻¹] | kon [M⁻¹ s⁻¹] | Binder
39 | 0.081 | 5.9e-05 | 730000 | B1
40 | 0.065 | 4.3e-05 | 660000 | B2
41 | 0.071 | 0.0001 | 1.5e+06 | B3
42 | 0.24 | 0.00013 | 560000 | B4

biological target: T5, His-tagged cynomolgus TIGIT (cynomolgus, UniProt A0A7N9I9V4 89-209); experiment: as above
T5 construct: SPR analyte; also called cynomolgus TIGIT protein; not shown: His tag
T5 sequence (A0A7N9I9V4 entry or part of it): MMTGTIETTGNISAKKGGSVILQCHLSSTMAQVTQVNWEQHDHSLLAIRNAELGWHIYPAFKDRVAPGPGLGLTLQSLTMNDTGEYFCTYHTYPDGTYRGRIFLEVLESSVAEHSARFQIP

Row | Kd [nM] | koff [s⁻¹] | kon [M⁻¹ s⁻¹] | Binder
43 | 1.8 | 0.0002 | 110000 | B1
44 | 5.4 | 0.0011 | 200000 | B2
45 | 0.091 | 6.6e-05 | 730000 | B3
46 | 54 | 0.0049 | 90000 | B4

biological target: T3, His-tagged human TIGIT; experiment: as above; remark: another data set of the same source

Row | Kd [nM] | koff [s⁻¹] | kon [M⁻¹ s⁻¹] | Binder
47 | 0.075 | 4.7e-05 | 630000 | B1
48 | 0.055 | 3.5e-05 | 630000 | B2
49 | 0.04 | 5.9e-05 | 1.5e+06 | B3
50 | 0.54 | 0.00031 | 570000 | B5
51 | 0.17 | 9e-05 | 520000 | B4

biological target: T5, His-tagged cynomolgus TIGIT; experiment: as above; remark: another data set of the same source

Row | Kd [nM] | koff [s⁻¹] | kon [M⁻¹ s⁻¹] | Binder
52 | 0.45 | 5.3e-05 | 120000 | B1
53 | 3 | 0.00083 | 270000 | B2
54 | 0.032 | 3.2e-05 | 1e+06 | B3
55 | 18 | 0.0022 | 120000 | B5
56 | 39 | 0.0046 | 120000 | B4

biological target: T2, human TIGIT expressed on CHO-K1 cells; experiment: flow cytometry competition: biotinylated CD155-Fc on human TIGIT-CHO-K1 cells

Row | IC50 [nM] | Binder
57 | 0.38 | B1
58 | 1.4 | B2
59 | 0.4 | B3
60 | 0.57 | B4

biological target: T2, human TIGIT expressed on CHO-K1 cells; experiment: as above; remark: another data set of the same source

Row | IC50 [nM] | Binder
61 | 0.558 | B1
62 | 0.95 | B2
63 | 0.26 | B3
64 | 0.502 | B5
65 | 0.566 | B4
